Measured values taken from the supplement of paper PMC10065799, “High-throughput profiling of sequence recognition by tyrosine kinases and SH2 domains using bacterial peptide display” (eLife, 2023).

Assays:
c-Src SH2 = assay: SH2 binding enrichment of the phosphorylated peptide, bacterial display (enrichment ratio); higher = better substrate or ligand; peptides without Tyr show the background
SHP2-C SH2 = assay: as above
Grb2 SH2 = Grb2 SH2 (UniProt P62993); assay: as above
Hck = Hck (UniProt P08631); assay: phosphorylation enrichment, bacterial display (enrichment ratio); higher = better substrate or ligand; peptides without Tyr show the background
c-Abl (mouse) = assay: as above
FGFR1 = FGFR1 (UniProt P11362); assay: as above
c-Src = assay: as above
Fes = Fes (UniProt P07332); assay: as above
FGFR3 = FGFR3 (UniProt P22607); assay: as above
Jak2 = Jak2 (UniProt O60674); assay: as above
Fyn = Fyn (UniProt P06241); assay: as above
MERTK = MERTK (UniProt Q12866); assay: as above
AncSZ = assay: as above
EPHB2 = EPHB2 (UniProt P29323); assay: as above
Fer (mouse) = assay: as above
EPHB1 = EPHB1 (UniProt P54762); assay: as above
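Throughout, for SH2 binding enrichment of the phosphorylated peptide, bacterial display: peptide library displayed on the E. coli surface as eCPX fusions, selected cells deep-sequenced, score is each peptide's frequency after selection divided by its frequency in the input.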
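Throughout, for phosphorylation enrichment, bacterial display: 11-residue human phosphosite peptides and single-mutation variants displayed on the E. coli surface, counted by deep sequencing, each peptide's frequency after selection divided by its frequency in the unselected input library; frequency after pTyr selection over input frequency; kinase dosed for 20-30% of maximal phosphorylation in three min.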

FGFR1, sequence (P11362 whole entry, looked up): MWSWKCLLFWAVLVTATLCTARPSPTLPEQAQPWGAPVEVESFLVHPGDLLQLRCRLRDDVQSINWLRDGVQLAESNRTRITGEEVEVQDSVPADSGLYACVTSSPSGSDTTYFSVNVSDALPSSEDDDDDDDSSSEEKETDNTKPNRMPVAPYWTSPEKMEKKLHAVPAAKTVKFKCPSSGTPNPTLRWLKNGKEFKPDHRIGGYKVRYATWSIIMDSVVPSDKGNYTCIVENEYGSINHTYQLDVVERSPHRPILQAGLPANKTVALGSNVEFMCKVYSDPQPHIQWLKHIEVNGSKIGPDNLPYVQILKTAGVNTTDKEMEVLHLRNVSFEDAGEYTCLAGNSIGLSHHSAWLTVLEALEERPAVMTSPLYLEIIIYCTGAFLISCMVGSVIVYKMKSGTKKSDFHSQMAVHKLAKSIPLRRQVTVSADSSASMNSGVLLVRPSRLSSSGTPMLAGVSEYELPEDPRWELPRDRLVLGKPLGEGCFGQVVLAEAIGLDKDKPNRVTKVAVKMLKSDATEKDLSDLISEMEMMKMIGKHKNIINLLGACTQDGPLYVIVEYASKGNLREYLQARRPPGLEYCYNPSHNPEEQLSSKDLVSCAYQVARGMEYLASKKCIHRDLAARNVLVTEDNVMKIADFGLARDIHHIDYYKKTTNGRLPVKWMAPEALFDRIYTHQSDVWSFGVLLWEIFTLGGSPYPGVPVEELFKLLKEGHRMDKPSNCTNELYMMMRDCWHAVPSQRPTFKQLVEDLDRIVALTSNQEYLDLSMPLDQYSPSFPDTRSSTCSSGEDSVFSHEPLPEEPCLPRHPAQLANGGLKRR
EPHB2, sequence (P29323 whole entry, looked up): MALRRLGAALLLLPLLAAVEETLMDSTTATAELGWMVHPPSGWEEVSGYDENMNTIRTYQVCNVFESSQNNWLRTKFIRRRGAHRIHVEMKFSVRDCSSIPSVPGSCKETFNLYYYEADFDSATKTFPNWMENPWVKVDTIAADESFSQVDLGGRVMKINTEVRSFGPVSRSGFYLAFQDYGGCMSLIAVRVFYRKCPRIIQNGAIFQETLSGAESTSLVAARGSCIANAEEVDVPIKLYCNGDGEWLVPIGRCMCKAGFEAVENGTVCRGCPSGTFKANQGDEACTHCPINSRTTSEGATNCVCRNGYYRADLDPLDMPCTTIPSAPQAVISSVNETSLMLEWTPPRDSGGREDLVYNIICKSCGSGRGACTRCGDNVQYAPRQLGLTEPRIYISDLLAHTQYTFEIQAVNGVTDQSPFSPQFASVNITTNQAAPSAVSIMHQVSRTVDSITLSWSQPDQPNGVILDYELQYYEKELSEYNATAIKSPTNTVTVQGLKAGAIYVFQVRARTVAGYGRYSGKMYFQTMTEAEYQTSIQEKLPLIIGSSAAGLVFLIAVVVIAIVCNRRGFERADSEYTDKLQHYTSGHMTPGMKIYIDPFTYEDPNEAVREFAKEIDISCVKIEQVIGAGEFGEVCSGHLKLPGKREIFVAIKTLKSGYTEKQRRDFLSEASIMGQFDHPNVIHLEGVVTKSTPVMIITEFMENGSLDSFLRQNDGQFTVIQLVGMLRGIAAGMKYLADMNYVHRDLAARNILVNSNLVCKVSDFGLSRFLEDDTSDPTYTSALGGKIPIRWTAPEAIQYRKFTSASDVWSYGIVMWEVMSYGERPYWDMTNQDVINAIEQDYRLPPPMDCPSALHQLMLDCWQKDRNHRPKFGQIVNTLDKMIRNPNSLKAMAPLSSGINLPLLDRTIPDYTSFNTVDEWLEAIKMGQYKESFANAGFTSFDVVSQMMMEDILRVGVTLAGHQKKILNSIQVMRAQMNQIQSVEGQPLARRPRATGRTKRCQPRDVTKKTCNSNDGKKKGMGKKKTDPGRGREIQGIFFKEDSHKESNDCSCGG
Hck, sequence (P08631 whole entry, looked up): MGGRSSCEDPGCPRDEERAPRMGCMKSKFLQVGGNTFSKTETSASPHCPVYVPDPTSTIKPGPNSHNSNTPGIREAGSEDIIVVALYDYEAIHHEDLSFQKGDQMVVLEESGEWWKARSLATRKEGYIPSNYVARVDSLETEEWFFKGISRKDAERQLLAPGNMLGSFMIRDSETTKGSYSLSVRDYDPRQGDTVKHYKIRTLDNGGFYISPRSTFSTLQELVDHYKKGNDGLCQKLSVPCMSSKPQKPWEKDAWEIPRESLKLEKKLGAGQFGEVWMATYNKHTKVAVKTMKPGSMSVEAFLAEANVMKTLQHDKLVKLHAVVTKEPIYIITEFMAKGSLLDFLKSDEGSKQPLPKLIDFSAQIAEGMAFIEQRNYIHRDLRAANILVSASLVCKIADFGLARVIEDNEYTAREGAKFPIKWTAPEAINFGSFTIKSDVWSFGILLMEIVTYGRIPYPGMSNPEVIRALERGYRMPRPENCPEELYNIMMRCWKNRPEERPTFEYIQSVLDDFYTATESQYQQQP
Fes, sequence (P07332 whole entry, looked up): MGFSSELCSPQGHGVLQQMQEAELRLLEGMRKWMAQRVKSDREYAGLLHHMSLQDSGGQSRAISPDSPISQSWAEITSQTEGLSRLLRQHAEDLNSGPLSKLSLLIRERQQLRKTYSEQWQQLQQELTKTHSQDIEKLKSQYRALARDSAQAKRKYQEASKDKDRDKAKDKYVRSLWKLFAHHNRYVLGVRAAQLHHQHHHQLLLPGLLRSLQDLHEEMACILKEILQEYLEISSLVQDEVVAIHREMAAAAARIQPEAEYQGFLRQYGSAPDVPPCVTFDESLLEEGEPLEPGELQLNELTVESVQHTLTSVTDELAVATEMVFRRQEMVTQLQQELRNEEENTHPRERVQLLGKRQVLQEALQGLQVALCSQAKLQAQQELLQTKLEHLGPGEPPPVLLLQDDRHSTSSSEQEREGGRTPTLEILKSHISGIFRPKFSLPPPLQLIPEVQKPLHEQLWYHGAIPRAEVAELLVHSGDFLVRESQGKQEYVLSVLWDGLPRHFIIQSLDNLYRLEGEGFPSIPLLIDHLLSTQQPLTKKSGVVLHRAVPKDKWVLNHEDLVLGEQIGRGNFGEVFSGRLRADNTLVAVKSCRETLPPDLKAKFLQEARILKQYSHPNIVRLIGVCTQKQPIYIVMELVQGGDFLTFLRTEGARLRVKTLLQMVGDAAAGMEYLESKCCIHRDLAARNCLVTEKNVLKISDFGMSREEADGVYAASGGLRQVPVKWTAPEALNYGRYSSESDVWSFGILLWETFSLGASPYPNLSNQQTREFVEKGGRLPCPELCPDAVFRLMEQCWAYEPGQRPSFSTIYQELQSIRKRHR
EPHB1, sequence (P54762 whole entry, looked up, the tested form may be a part): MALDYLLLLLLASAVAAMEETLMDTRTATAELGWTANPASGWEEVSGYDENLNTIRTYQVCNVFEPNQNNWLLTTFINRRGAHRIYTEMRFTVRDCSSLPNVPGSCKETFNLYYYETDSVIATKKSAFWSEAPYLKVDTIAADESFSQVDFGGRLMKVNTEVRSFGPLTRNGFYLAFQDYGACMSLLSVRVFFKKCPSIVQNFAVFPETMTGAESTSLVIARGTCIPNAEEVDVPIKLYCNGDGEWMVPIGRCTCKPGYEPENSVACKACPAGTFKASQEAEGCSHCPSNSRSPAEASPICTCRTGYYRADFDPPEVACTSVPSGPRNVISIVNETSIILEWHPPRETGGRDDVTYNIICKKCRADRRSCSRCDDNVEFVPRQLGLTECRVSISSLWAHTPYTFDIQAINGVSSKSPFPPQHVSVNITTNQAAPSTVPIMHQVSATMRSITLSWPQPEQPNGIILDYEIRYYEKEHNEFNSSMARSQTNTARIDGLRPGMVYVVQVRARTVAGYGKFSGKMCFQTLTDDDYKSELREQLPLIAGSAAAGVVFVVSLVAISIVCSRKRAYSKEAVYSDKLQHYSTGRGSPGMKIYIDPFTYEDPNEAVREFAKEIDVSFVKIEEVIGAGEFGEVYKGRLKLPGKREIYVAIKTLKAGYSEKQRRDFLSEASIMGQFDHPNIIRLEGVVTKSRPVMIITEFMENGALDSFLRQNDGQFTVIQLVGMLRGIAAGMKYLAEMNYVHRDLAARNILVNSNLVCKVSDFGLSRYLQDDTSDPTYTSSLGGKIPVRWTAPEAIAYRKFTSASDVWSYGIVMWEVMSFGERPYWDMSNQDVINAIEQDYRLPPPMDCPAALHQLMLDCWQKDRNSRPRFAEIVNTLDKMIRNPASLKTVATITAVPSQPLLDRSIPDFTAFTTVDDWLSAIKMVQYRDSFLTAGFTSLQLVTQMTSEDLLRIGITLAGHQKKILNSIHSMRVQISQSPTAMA
FGFR3, sequence (P22607 whole entry, looked up): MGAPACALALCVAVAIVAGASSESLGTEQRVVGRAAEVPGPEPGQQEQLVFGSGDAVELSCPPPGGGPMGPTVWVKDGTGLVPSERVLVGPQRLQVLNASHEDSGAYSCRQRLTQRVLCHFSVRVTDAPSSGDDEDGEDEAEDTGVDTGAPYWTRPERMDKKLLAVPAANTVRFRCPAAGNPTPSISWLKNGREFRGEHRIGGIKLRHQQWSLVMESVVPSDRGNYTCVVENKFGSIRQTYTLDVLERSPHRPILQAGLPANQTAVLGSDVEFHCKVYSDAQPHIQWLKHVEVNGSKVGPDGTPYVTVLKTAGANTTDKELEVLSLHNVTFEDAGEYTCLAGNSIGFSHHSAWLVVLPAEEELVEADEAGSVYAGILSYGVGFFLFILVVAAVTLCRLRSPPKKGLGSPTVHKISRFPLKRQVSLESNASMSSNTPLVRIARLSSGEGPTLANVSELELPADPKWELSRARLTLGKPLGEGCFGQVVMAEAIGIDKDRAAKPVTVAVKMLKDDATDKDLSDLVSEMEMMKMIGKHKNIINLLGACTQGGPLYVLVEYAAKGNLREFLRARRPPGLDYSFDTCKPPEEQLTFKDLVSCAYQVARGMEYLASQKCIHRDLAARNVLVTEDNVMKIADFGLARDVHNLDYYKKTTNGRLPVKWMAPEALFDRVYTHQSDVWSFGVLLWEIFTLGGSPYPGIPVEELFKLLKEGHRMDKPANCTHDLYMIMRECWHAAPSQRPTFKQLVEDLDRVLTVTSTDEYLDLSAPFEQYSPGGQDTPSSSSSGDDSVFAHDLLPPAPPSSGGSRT

Row | Sequence | SH2 binding enrichment (c-Src SH2) | SH2 binding enrichment (SHP2-C SH2) | SH2 binding enrichment (Grb2 SH2) | phosphorylation enrichment (Hck) | phosphorylation enrichment (c-Abl (mouse)) | phosphorylation enrichment (FGFR1) | phosphorylation enrichment (c-Src) | phosphorylation enrichment (Fes) | phosphorylation enrichment (FGFR3) | phosphorylation enrichment (Jak2) | phosphorylation enrichment (Fyn) | phosphorylation enrichment (MERTK) | phosphorylation enrichment (AncSZ) | phosphorylation enrichment (EPHB2) | phosphorylation enrichment (Fer (mouse)) | phosphorylation enrichment (EPHB1)
1 | YQLPYYNMVPS [BMPR1A_Y458] | 5.08 | 1.73 | 11.4 | 3.28 | 3.96 | 13.1 | 5.1 | 0.802 | 10.5 | 10.4 | 3.36 | 8.84 | 2.75 | 2.52 | 5.67 | 2.58
2 | YRNKPYISWPS [CDC42BPB_Y1638_S1633Y] | 1.29 | 1.64 | 1.87 | 0.606 | 0.401 | 0.394 | 0.522 | 0.635 | 0.46 | 0.697 | 0.41 | 0.449 | 0.547 | 0.461 | 0.394 | 0.45
3 | YSGIYYKPESL [L2HGDH_Y103_H98Y] | 6.04 | 10.5 | 0.831 | 8.46 | 29.5 | 11 | 6.07 | 0.968 | 9.82 | 6.33 | 9.17 | 10.9 | 2.36 | 12.4 | 9.95 | 9.38
4 | YYLGKYLQEVL [KLB_Y910] | 0.686 | 0.66 | 0.877 | 0.565 | 0.902 | 3.66 | 0.523 | 1.34 | 2.92 | 1.3 | 0.568 | 1.42 | 1.2 | 0.593 | 0.523 | 0.506

Further lines, with some results ahead:

Row | SH2 binding enrichment (c-Src SH2) | SH2 binding enrichment (SHP2-C SH2) | SH2 binding enrichment (Grb2 SH2) | Sequence | phosphorylation enrichment (Hck) | phosphorylation enrichment (c-Abl (mouse)) | phosphorylation enrichment (FGFR1) | phosphorylation enrichment (c-Src) | phosphorylation enrichment (Fes) | phosphorylation enrichment (FGFR3) | phosphorylation enrichment (Jak2) | phosphorylation enrichment (Fyn) | phosphorylation enrichment (MERTK) | phosphorylation enrichment (AncSZ) | phosphorylation enrichment (EPHB2) | phosphorylation enrichment (Fer (mouse)) | phosphorylation enrichment (EPHB1)
5 | 1.11 | 0.83 | 1.02 | YPLELYERVRM [PRKCG_Y312] | 1.65 | 0.632 | 0.481 | 0.699 | 1.25 | 0.622 | 1.25 | 0.518 | 0.432 | 1.19 | 1.18 | 3.71 | 2.02
6 | 0.753 | 1.03 | 0.941 | YRTPGYREVVI [TNS2_Y673_A670T] | 0.341 | 1.23 | 0.42 | 0.465 | 0.721 | 0.447 | 0.587 | 0.425 | 0.472 | 0.799 | 0.453 | 0.399 | 0.358
7 | 1.12 | 0.957 | 0.826 | YSNKLYYQLEQ [PDPR_Y109] | 2.27 | 0.82 | 8.28 | 3.28 | 1.09 | 7.22 | 1.76 | 2.08 | 6.24 | 1.43 | 2.11 | 0.81 | 3.14
8 | 2.46 | 0.908 | 0.874 | YSPCDYQPCLA [TNS1_Y798_Y796C] | 0.838 | 0.827 | 4.87 | 1.62 | 0.966 | 3.25 | 1.06 | 1.14 | 3.24 | 2.78 | 9.31 | 2.44 | 13.9
